The text below walks through data of patent US20140302035A1 (MERRIMACK PHARMACEUTICALS, published 2014).

The target in test [1] is T1, Human EpCAM-Fc-his tagged (human).
T1 construct: also called Recombinant polyhistidine-tagged EpCAM-Fc; recombinant EpCAM
Put plainly: BLI (ForteBio Octet), antibody loaded on Protein A tips, recombinant polyhistidine-tagged EpCAM-Fc in solution.

Test [2] addresses T2, cMet-his (Homo sapiens (Human), UniProt P08581 25-933).
T2 construct: also called his tagged cMET; Recombinant polyhistidine-tagged c-Met
Put plainly: BLI (ForteBio Octet), antibody loaded on Protein A tips, recombinant polyhistidine-tagged c-Met in solution, 1:1 model. As for the experimental part: (§1) For Octet analysis, all reagents and samples are brought to room temperature. Protein A sensor tips (ForteBio, #18-5010) are hydrated for 10 minutes in 1×PBS. Assay steps include: 1-2 minutes of equilibration in 1×PBS, 4 minutes of antibody loading (concentration of 50 μg/ml in 1×PBS), 1-2 minutes of baseline stabilization, 4 minutes of antibody:antigen association, and 4 minutes of antibody:antigen dissociation. 1×PBS is used as the matrix throughout. Data are analyzed with Octet Data Analysis software, processed, and fit to a 1:1 binding model to determine kinetic parameters (Kd, kₒₙ and kdiss).
Table A-4 describes approximate c-Met binding affinity and dissociation rate as determined for Ab#5 and Ab#7.

Test [3] has as its target T1, Human EpCAM-Fc-his tagged. Put plainly: BLI (ForteBio Octet), repeat analysis, antibody on Protein A tips, recombinant polyhistidine-tagged EpCAM-Fc in solution, 1:1 model. As for the experimental part:
as §1
Table A-3 describes a repeat analysis for Ab#5, Ab#7, and Ab#13. For the repeat experiment, Kd and kdiss values for Ab#5, Ab#7, and Ab#13 are substantially equivalent to those determined for Ab#5, Ab#7, and Ab#13 in the initial experiment.

Test [4] deals with T1, Human EpCAM-Fc-his tagged. As to the kind of experiment: BLI (ForteBio Octet), antibody loaded on Protein A tips, recombinant polyhistidine-tagged EpCAM-Fc in solution, 1:1 model. The method, boiled down: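 Biolayer interferometry at room temperature in 1×PBS: antibody (50 μg/ml) captured on Protein A tips for 4 min, then 4 min association with antigen in solution and 4 min dissociation. Kd, kₒₙ and kdiss were obtained from a 1:1 binding model fit.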

T1 sequence (chain, as listed by the source): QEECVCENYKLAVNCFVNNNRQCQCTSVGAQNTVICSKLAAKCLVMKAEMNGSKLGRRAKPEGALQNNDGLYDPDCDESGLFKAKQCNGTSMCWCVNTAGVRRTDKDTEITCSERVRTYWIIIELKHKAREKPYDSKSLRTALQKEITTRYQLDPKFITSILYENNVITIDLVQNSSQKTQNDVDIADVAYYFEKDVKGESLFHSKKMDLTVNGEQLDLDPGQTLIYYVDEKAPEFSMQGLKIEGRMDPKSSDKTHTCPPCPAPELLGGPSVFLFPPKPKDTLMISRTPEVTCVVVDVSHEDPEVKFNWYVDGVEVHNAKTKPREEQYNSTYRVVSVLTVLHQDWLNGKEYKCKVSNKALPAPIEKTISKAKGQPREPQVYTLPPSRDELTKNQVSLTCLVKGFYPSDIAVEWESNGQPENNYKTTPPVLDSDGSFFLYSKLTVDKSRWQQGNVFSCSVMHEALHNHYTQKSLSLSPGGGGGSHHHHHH

B1: Ab#2 (bispecific antibody, human IgG1, kappa)
heavy: QLQLQESGPGLVKPSETLSLTCTVSGGSISSSVYYWSWIRQPPGKGLEWIGVIYPSGNTYYSPSLKSRVTISVDTSKNQFSLKLSSVTAADTAVYYCARTIYDLFDIWGQGTMVTVSSASTKGPSVFPLAPSSKSTSGGTAALGCLVKDYFPEPVTVSWNSGALTSGVHTFPAVLQSSGLYSLSSVVTVPSSSLGTQTYICNVNHKPSNTKVDKKVEPKSCDKTHTCPSCPAPEFLGGPSVFLFPPKPKDTLMISRTPEVTCVVVDVSQEDPEVQFNWYVDGVEVHNAKTKPREEQFNSKYRVVSVLTVLHQDWLNGKEYKCKVSNKGLPSSIEKTISKAKGQPREPQVYTLPPSREEMTKNQVSLSCAVKGFYPSDIAVEWESNGQPENNYKTTPPVLDSDGSFFLVSKLTVDKSRWQQGNVFSCSVMHEALHNHYTQKSLSLSKSCDKTGGGGSGGGGSGGGGSGGGGSGGGGSGGGGSGGGGSGGGGSCPSCPAPEFLGGPSVFLFPPKPKDTLMISRTPEVTCVVVDVSQEDPEVQFNWYVDGVEVHNAKTKPREEQFNSDYRVVSVLTVLHQDWLNGKEYKCKVSNKGLPSSIEKTISKAKGQPREPQVYTLPPSREEMTKNQVSLWCLVKGFYPSDIAVEWESNGQPENNYKTTPPVLDSDGSFFLYSKLTVDKSRWQQGNVFSCSVMHEALHNHYTQKSLSLSGECGGGGSGGGGSQVQLVQSGSELKKPGESVKVSCKASGYTFTNYGMHWVRQAPGQGLKWMGWINTYTGESTYADDFKGRFAFSLDTSASTAYLQISSLKAEDTAVYFCARFAIKGDYWGQGTLVTVSSASTGGGGSGGGGSGGGGSGGGGSDIVMTQSPLSLPVTPGEPASISCRSTKSLLHSDGITYLYWYLQKPGQSPQLLIYQLSNLASGVPDRFSSSGSGTDFTLKISRVEAEDEGVYYCAQNLEIPYTFGQGTKVEIK
light: DIQMTQSPSSVSASVGDRVTITCRASQGISSWLAWYQQKPGKAPKLLIYAASSLQSGVPSRFSGSGSGTDFTLTISSLQPEDFATYYCLQANSFPPTFGGGTKVEIKRTVAAPSVFIFPPSDEQLKSGTASVVCLLNNFYPREAKVQWKVDNALQSGNSQESVTEQDSKDSTYSLSSTLTLSKADYEKHKVYACEVTHQGLSSPVTKSFNRGEC
notes: Anti-c-Met Fab / tandem Fc / anti-EpCAM scFv TFcBA; also called Antibody #2
As for B1, the binding result in test [1] is recorded as “no binding”.

B2: Ab#5 (bispecific antibody, human IgG1, kappa)
heavy: QLQLQESGPGLVKPSETLSLTCTVSGGSISSSVYYWSWIRQPPGKGLEWIGVIYPSGNTYYSPSLKSRVTISVDTSKNQFSLKLSSVTAADTAVYYCARTIYDLFDIWGQGTMVTVSSASTKGPSVFPLAPSSKSTSGGTAALGCLVKDYFPEPVTVSWNSGALTSGVHTFPAVLQSSGLYSLSSVVTVPSSSLGTQTYICNVNHKPSNTKVDKKVEPKSCDKTHTCPSCPAPEFLGGPSVFLFPPKPKDTLMISRTPEVTCVVVDVSQEDPEVQFNWYVDGVEVHNAKTKPREEQFNSKYRVVSVLTVLHQDWLNGKEYKCKVSNKGLPSSIEKTISKAKGQPREPQVYTLPPSREEMTKNQVSLSCAVKGFYPSDIAVEWESNGQPENNYKTTPPVLDSDGSFFLVSKLTVDKSRWQQGNVFSCSVMHEALHNHYTQKSLSLSKSCDKTGGGGSGGGGSGGGGSGGGGSGGGGSGGGGSGGGGSGGGGSCPSCPAPEFLGGPSVFLFPPKPKDTLMISRTPEVTCVVVDVSQEDPEVQFNWYVDGVEVHNAKTKPREEQFNSDYRVVSVLTVLHQDWLNGKEYKCKVSNKGLPSSIEKTISKAKGQPREPQVYTLPPSREEMTKNQVSLWCLVKGFYPSDIAVEWESNGQPENNYKTTPPVLDSDGSFFLYSKLTVDKSRWQQGNVFSCSVMHEALHNHYTQKSLSLSGECGGGGSGGGGSDIVMTQSPLSLPVTPGEPASISCRSTKSLLHSNGITYLYWYLQKPGQSPQLLIYQMSNLASGVPDRFSSSGSGTDFTLKISRVEAEDEGVYYCAQNLEIPRTFGGGTKLEIKRTGGGGSGGGGSGGGGSGGGGSQVQLVQSGAEVKKPGESVKISCKASGYTFTNYGMNWVRQAPGQGLKWMGWINTYTGESTYADDFKGRFAFSLDTSASTAYLQLSSLRSEDTAVYFCARFAIKGDYWGQGTLVTVSS
light: DIQMTQSPSSVSASVGDRVTITCRASQGISSWLAWYQQKPGKAPKLLIYAASSLQSGVPSRFSGSGSGTDFTLTISSLQPEDFATYYCLQANSFPPTFGGGTKVEIKRTVAAPSVFIFPPSDEQLKSGTASVVCLLNNFYPREAKVQWKVDNALQSGNSQESVTEQDSKDSTYSLSSTLTLSKADYEKHKVYACEVTHQGLSSPVTKSFNRGEC
notes: Anti-c-Met Fab / tandem Fc / anti-EpCAM scFv TFcBA; also called Antibody #5
For the molecule B2, the values for the Kd in test [2], in test [3] and in test [4] were 3.4 nM, 2.67 nM and 3.57 nM, respectively. For the same molecule, the results for the koff in test [2], in test [3] and in test [4] were 0.000588 s⁻¹, 0.000194 s⁻¹ and 0.000346 s⁻¹, respectively.

B3: Ab#7 (bispecific antibody, human IgG1, kappa)
heavy: QLQLQESGPGLVKPSETLSLTCTVSGGSISSSVYYWSWIRQPPGKGLEWIGVIYPSGNTYYSPSLKSRVTISVDTSKNQFSLKLSSVTAADTAVYYCARTIYDLFDIWGQGTMVTVSSASTKGPSVFPLAPSSKSTSGGTAALGCLVKDYFPEPVTVSWNSGALTSGVHTFPAVLQSSGLYSLSSVVTVPSSSLGTQTYICNVNHKPSNTKVDKKVEPKSCDKTHTCPSCPAPEFLGGPSVFLFPPKPKDTLMISRTPEVTCVVVDVSQEDPEVQFNWYVDGVEVHNAKTKPREEQFNSKYRVVSVLTVLHQDWLNGKEYKCKVSNKGLPSSIEKTISKAKGQPREPQVYTLPPSREEMTKNQVSLSCAVKGFYPSDIAVEWESNGQPENNYKTTPPVLDSDGSFFLVSKLTVDKSRWQQGNVFSCSVMHEALHNHYTQKSLSLSKSCDKTGGGGSGGGGSGGGGSGGGGSGGGGSGGGGSGGGGSGGGGSCPSCPAPEFLGGPSVFLFPPKPKDTLMISRTPEVTCVVVDVSQEDPEVQFNWYVDGVEVHNAKTKPREEQFNSDYRVVSVLTVLHQDWLNGKEYKCKVSNKGLPSSIEKTISKAKGQPREPQVYTLPPSREEMTKNQVSLWCLVKGFYPSDIAVEWESNGQPENNYKTTPPVLDSDGSFFLYSKLTVDKSRWQQGNVFSCSVMHEALHNHYTQKSLSLSGECGGGGSGGGGSDIVMTQSPLSLPVTPGEPASISCRSTKSLLHSDGITYLYWYLQKPGQSPQLLIYQLSNLASGVPDRFSSSGSGTDFTLKISRVEAEDEGVYYCAQNLEIPRTFGCGTKLEIKRTGGGGSGGGGSGGGGSGGGGSQVQLVQSGAEVKKPGESVKISCKASGYTFTNYGMNWVRQAPGQCLKWMGWINTYTGESTYADDFKGRFAFSLDTSASTAYLQLSSLRSEDTAVYFCARFAIKGDYWGQGTLVTVSS
light: DIQMTQSPSSVSASVGDRVTITCRASQGISSWLAWYQQKPGKAPKLLIYAASSLQSGVPSRFSGSGSGTDFTLTISSLQPEDFATYYCLQANSFPPTFGGGTKVEIKRTVAAPSVFIFPPSDEQLKSGTASVVCLLNNFYPREAKVQWKVDNALQSGNSQESVTEQDSKDSTYSLSSTLTLSKADYEKHKVYACEVTHQGLSSPVTKSFNRGEC
notes: Anti-c-Met Fab / tandem Fc / anti-EpCAM scFv TFcBA; also called Antibody #7
As for B3, the figures for the Kd in test [2], in test [3] and in test [4] were 2.81 nM, 15.4 nM and 25.9 nM, respectively. In addition, the koff was 0.000554 s⁻¹ in test [2], 0.00137 s⁻¹ in test [3] and 0.00132 s⁻¹ in test [4].
